Measurements from publication PMC9482650, “Quantitative fragmentomics allow affinity mapping of interactomes” (Nature Communications, 2022).

B1: JAM3, Q9BX67 (peptide)
chain: DFRHKSSFVI

target: PICK1, Q9NRD5; assay: holdup assay; design: key: below the threshold = too weak to quantify, mostly under pKd 3.1 to 4; conditions: plain residues with an end cap or a label only (N-terminal biotin on a linker: ado-ado)
Sequence (Q9NRD5 17-115): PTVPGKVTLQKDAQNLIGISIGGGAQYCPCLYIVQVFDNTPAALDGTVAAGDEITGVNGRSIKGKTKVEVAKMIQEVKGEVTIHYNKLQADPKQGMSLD

Binder | pKd
B1 | below the threshold

target: GRIP2_3, Q9C0E4; assay: holdup assay; design: key: below the threshold = too weak to quantify, mostly under pKd 3.1 to 4; conditions: plain residues with an end cap or a label only (N-terminal biotin on a linker: ado-ado)
Sequence (Q9C0E4 238-339): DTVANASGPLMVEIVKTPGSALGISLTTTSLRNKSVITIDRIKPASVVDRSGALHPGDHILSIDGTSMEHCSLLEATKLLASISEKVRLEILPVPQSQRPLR

Binder | pKd
B1 | below the threshold

target: NOS1, P29475; assay: holdup assay; design: key: below the threshold = too weak to quantify, mostly under pKd 3.1 to 4; conditions: plain residues with an end cap or a label only (N-terminal biotin on a linker: ado-ado)
Sequence (P29475 9-101): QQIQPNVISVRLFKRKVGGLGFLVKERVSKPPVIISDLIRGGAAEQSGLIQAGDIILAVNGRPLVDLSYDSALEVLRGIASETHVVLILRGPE

Binder | pKd
B1 | below the threshold

target: T1, CARD11, Q9BXL7; assay: holdup assay; design: key: below the threshold = too weak to quantify, mostly under pKd 3.1 to 4; conditions: plain residues with an end cap or a label only (N-terminal biotin on a linker: ado-ado)
T1 sequence (Q9BXL7 662-765, limits assumed, looked up): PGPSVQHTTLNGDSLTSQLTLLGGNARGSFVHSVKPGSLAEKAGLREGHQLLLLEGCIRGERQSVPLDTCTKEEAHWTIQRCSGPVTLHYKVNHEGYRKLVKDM

Binder | pKd
B1 | below the threshold

target: NHERF4_2, Q86UT5; assay: holdup assay; design: key: below the threshold = too weak to quantify, mostly under pKd 3.1 to 4; conditions: plain residues with an end cap or a label only (N-terminal biotin on a linker: ado-ado)
Sequence (Q86UT5 220-308): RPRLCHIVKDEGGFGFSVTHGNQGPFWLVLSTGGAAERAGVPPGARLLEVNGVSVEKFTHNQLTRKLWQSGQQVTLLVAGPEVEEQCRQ

Binder | pKd
B1 | below the threshold

target: T2, TJP3_3, O95049; assay: holdup assay; design: key: below the threshold = too weak to quantify, mostly under pKd 3.1 to 4; conditions: plain residues with an end cap or a label only (N-terminal biotin on a linker: ado-ado)
T2 sequence (O95049 375-456, limits assumed, looked up): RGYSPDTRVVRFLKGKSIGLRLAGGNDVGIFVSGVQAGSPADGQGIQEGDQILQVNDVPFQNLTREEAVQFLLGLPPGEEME

Binder | pKd
B1 | below the threshold

target: DLG5_1, Q8TDM6; assay: holdup assay; design: key: below the threshold = too weak to quantify, mostly under pKd 3.1 to 4; conditions: plain residues with an end cap or a label only (N-terminal biotin on a linker: ado-ado)
Sequence (Q8TDM6 617-713): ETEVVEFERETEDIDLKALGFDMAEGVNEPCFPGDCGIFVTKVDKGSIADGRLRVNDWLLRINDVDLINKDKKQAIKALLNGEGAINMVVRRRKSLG

Binder | pKd
B1 | below the threshold

target: CASK, O14936; assay: holdup assay; design: key: below the threshold = too weak to quantify, mostly under pKd 3.1 to 4; conditions: plain residues with an end cap or a label only (N-terminal biotin on a linker: ado-ado)
Sequence (O14936 487-570): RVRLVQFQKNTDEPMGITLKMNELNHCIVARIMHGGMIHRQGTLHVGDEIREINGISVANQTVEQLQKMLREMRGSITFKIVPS

Binder | pKd
B1 | below the threshold

target: T3, ARHGEF11, O15085; assay: holdup assay; design: key: below the threshold = too weak to quantify, mostly under pKd 3.1 to 4; conditions: plain residues with an end cap or a label only (N-terminal biotin on a linker: ado-ado)
T3 sequence (O15085 42-136, limits assumed, looked up): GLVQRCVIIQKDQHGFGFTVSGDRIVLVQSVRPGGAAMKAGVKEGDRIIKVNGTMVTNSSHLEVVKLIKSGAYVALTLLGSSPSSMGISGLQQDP

Binder | pKd
B1 | below the threshold

target: T4, DVL3, Q92997; assay: holdup assay; design: key: below the threshold = too weak to quantify, mostly under pKd 3.1 to 4; conditions: plain residues with an end cap or a label only (N-terminal biotin on a linker: ado-ado)
T4 sequence (Q92997 244-331, limits assumed, looked up): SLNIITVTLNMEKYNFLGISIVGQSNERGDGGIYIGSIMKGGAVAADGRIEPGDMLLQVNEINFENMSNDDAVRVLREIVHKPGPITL

Binder | pKd
B1 | below the threshold

target: ARHGEF12, Q9NZN5-2; assay: holdup assay; design: key: below the threshold = too weak to quantify, mostly under pKd 3.1 to 4; conditions: plain residues with an end cap or a label only (N-terminal biotin on a linker: ado-ado)
Sequence (Q9NZN5 other isoform, or with tags, fused parts or gaps): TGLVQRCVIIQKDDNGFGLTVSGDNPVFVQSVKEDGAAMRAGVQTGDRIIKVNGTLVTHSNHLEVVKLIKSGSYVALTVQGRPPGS

Binder | pKd
B1 | below the threshold

target: T5, SNTA1, Q13424; assay: holdup assay; design: key: below the threshold = too weak to quantify, mostly under pKd 3.1 to 4; conditions: plain residues with an end cap or a label only (N-terminal biotin on a linker: ado-ado)
T5 sequence (Q13424 82-180, limits assumed, looked up): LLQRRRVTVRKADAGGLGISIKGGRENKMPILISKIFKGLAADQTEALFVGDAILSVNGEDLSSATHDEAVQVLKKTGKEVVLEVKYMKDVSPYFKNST

Binder | pKd
B1 | below the threshold

target: T6, NHERF3_1, Q5T2W1; assay: holdup assay; design: key: below the threshold = too weak to quantify, mostly under pKd 3.1 to 4; conditions: plain residues with an end cap or a label only (N-terminal biotin on a linker: ado-ado)
T6 sequence (Q5T2W1 4-100, limits assumed, looked up): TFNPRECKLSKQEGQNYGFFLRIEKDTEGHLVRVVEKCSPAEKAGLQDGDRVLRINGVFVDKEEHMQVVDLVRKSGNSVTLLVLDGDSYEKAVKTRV

Binder | pKd
B1 | below the threshold

target: T7, GRIP1_2, Q9Y3R0; assay: holdup assay; design: key: below the threshold = too weak to quantify, mostly under pKd 3.1 to 4; conditions: plain residues with an end cap or a label only (N-terminal biotin on a linker: ado-ado)
T7 sequence (Q9Y3R0 145-248, limits assumed, looked up): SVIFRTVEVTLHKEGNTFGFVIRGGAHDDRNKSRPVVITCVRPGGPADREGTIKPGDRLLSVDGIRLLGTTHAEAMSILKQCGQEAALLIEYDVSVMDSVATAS

Binder | pKd
B1 | below the threshold

target: T8, PCLO, Q9Y6V0; assay: holdup assay; design: key: below the threshold = too weak to quantify, mostly under pKd 3.1 to 4; conditions: plain residues with an end cap or a label only (N-terminal biotin on a linker: ado-ado)
T8 sequence (Q9Y6V0 4491-4600, limits assumed, looked up): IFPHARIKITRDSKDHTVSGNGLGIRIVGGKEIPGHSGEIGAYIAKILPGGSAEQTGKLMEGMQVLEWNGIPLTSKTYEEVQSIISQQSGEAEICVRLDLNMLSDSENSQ

Binder | pKd
B1 | below the threshold

target: MAGI2_6, Q86UL8; assay: holdup assay; design: key: below the threshold = too weak to quantify, mostly under pKd 3.1 to 4; conditions: plain residues with an end cap or a label only (N-terminal biotin on a linker: ado-ado)
Sequence (Q86UL8 1141-1229): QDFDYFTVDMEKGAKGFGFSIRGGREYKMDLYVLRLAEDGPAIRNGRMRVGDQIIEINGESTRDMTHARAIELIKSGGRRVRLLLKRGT

Binder | pKd
B1 | below the threshold

target: GRIP2_6, Q9C0E4; assay: holdup assay; design: key: below the threshold = too weak to quantify, mostly under pKd 3.1 to 4; conditions: plain residues with an end cap or a label only (N-terminal biotin on a linker: ado-ado)
Sequence (Q9C0E4 648-740): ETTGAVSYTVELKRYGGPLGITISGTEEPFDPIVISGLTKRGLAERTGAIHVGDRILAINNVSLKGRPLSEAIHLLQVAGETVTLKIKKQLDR

Binder | pKd
B1 | 4.05

target: Inadl_6, Q8NI35; assay: holdup assay; design: key: below the threshold = too weak to quantify, mostly under pKd 3.1 to 4; conditions: plain residues with an end cap or a label only (N-terminal biotin on a linker: ado-ado)
Sequence (Q8NI35 1058-1167): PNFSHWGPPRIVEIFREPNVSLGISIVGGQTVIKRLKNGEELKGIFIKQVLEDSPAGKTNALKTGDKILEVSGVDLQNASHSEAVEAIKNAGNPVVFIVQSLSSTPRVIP

Binder | pKd
B1 | below the threshold

target: T9, TIAM2, Q8IVF5; assay: holdup assay; design: key: below the threshold = too weak to quantify, mostly under pKd 3.1 to 4; conditions: plain residues with an end cap or a label only (N-terminal biotin on a linker: ado-ado)
T9 sequence (Q8IVF5 885-986, limits assumed, looked up): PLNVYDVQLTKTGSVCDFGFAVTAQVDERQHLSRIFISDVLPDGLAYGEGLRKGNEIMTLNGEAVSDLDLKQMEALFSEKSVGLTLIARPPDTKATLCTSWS

Binder | pKd
B1 | 4.02

target: T10, MPP6, Q9NZW5; assay: holdup assay; design: key: below the threshold = too weak to quantify, mostly under pKd 3.1 to 4; conditions: plain residues with an end cap or a label only (N-terminal biotin on a linker: ado-ado)
T10 sequence (Q9NZW5 125-219, limits assumed, looked up): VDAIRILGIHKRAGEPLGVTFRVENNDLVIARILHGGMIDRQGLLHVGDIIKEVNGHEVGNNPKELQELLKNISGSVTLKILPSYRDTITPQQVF

Binder | pKd
B1 | 3.62

target: HTRA2, O43464; assay: holdup assay; design: key: below the threshold = too weak to quantify, mostly under pKd 3.1 to 4; conditions: plain residues with an end cap or a label only (N-terminal biotin on a linker: ado-ado)
Sequence (O43464 355-458): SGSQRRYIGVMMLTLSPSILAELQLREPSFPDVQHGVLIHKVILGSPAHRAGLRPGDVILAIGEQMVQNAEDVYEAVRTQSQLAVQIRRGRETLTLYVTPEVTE

Binder | pKd
B1 | below the threshold

target: T11, APBA2_1, Q99767; assay: holdup assay; design: key: below the threshold = too weak to quantify, mostly under pKd 3.1 to 4; conditions: plain residues with an end cap or a label only (N-terminal biotin on a linker: ado-ado)
T11 sequence (Q99767 563-664, limits assumed, looked up): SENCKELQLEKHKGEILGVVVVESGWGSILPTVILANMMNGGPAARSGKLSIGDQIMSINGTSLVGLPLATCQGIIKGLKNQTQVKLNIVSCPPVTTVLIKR

Binder | pKd
B1 | below the threshold

target: T12, FRMPD1, Q5SYB0; assay: holdup assay; design: key: below the threshold = too weak to quantify, mostly under pKd 3.1 to 4; conditions: plain residues with an end cap or a label only (N-terminal biotin on a linker: ado-ado)
T12 sequence (Q5SYB0 52-145, limits assumed, looked up): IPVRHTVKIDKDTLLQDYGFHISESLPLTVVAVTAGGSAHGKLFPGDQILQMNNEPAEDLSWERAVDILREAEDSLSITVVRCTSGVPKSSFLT

Binder | pKd
B1 | below the threshold

target: T13, APBA3_1, O96018; assay: holdup assay; design: key: below the threshold = too weak to quantify, mostly under pKd 3.1 to 4; conditions: plain residues with an end cap or a label only (N-terminal biotin on a linker: ado-ado)
T13 sequence (O96018 389-490, limits assumed, looked up): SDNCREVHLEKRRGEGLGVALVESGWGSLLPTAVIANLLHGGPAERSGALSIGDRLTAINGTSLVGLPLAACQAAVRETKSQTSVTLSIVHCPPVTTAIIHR

Binder | pKd
B1 | below the threshold

target: IL16_1, Q14005; assay: holdup assay; design: key: below the threshold = too weak to quantify, mostly under pKd 3.1 to 4; conditions: plain residues with an end cap or a label only (N-terminal biotin on a linker: ado-ado)
Sequence (Q14005 210-306): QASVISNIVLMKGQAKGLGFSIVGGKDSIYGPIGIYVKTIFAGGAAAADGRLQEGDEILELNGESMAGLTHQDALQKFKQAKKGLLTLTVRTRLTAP

Binder | pKd
B1 | below the threshold
